Consider 4 molecules from publication doi:10.1101/2025.07.02.662585 (bioRxiv, 2025).

First the molecules themselves.
T1: Avo3 (yeast (endogenous in yeast cells), UniProt P40061 1-1430)
T1 sequence: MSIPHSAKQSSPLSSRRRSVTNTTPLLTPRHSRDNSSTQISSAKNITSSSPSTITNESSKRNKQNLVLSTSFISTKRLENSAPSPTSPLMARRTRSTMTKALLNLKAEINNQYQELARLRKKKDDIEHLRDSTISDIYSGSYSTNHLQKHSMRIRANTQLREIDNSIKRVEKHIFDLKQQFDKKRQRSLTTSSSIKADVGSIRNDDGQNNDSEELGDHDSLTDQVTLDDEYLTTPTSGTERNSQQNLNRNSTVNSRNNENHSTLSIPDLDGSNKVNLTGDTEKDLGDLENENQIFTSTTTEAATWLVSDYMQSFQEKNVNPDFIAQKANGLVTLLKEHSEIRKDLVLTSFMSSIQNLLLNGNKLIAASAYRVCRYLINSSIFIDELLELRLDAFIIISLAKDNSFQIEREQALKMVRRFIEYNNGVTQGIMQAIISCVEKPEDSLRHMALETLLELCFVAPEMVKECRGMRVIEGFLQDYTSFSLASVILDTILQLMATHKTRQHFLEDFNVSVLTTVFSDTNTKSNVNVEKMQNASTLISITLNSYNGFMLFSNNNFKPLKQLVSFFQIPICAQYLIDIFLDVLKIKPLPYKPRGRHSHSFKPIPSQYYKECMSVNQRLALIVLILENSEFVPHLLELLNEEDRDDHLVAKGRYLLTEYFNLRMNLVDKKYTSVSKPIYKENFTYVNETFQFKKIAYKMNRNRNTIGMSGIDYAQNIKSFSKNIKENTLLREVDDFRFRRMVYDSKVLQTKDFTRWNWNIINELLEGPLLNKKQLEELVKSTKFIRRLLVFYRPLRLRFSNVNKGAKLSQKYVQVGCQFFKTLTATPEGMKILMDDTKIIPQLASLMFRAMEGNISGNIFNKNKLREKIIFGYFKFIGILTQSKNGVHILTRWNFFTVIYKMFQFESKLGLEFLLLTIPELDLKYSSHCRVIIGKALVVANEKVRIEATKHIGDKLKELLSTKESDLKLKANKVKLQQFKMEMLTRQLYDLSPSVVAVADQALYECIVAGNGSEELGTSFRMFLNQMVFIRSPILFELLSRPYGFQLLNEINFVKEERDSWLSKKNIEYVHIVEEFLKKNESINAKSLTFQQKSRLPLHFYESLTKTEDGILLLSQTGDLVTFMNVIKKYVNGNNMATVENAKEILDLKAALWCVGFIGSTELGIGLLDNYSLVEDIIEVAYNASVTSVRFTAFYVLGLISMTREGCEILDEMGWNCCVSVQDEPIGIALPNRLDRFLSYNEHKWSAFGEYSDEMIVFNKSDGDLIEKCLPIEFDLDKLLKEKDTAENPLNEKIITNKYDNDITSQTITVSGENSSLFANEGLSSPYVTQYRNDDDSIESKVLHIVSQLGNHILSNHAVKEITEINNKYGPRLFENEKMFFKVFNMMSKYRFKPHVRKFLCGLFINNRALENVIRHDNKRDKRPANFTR

B1: Avo2 (natural protein)
chain: MLKEPSVRLREAIIEGNLLIVKRLLRRNPDLLTNIDSENGWSSLHYASYHGRYLICVYLIQLGHDKHELIKTFKGNTCVHLALMKGHEQTLHLLLQQFPRFINHRGENGRAPIHIACMNDYYQCLSLLIGVGADLWVMDTNGDTPLHVCLEYGSISCMKMLLNEGEVSLDDNVRDKGNWKPIDVAQTFEVGNIYSKVLKEVKKKGPPLGAGKKPSSFRTPILNAKATFEDGPSPVLSMNSPYSLYSNNSPLPVLPRRISTHTTSGNGGNRRSSITNPVFNPRKPTLSTDSFSSSSNSSSRLRVNSINVKTPVGVSPKKELVSESVRHSATPTSPHNNIALINRYLLPNKSNDNVRGDSQTATINDDGGGGNGGDATIGMGLRKDPDDENENKYKIKVNNGEPRRRVSLLNIPISKLRNSNNTRAED
B2: Bit61 (natural protein)
chain: MTAEDILLRERTSTTTQRPVNSEQYLNVQLATAPVKNFQTTSEISRQTLVDTSNDDVYSIKNLKGSRNPISPSVSNVGFQSIFHTVDHPRSKVSVASNHSLRSNDNASAATSKSGSSQIGESHSVDTVECSNNLSKKLSSDAISITQKSLHSTPSGRYMKGKASGFFNRRNRAHTTISSDPASFLTDSSTLHNSSHSFRNVIKNFFQNKSHRHIGQDAIEPAIPNSLSKFLHSSYGRHKSPSQFIHTNAGQLVDSGTSVYSLNVNPSGVNPNTIVEDPLSGTDPASPNPVSMLHDLLRNLPSLEANYKHFNSQELTTLTNNIWNIFCSNVAELFRTQRIWKLRAKIENFNEVLEFYCILKTDPRVTHSGMNRIISDLKEFLVSSLYNLENQIVFNYSNEDTINNALKRLGVIWRIFYQEVYYDLAAVLLPLDQSIREDGNSTVLKSGNESRTHINGNYSIGFLLLMCFRDSIVLPCYENFVNSNDGISKSFQLYIFNQEEESNVTETDKLTLLQCFGILSTIQSNDRNQRIIEELLAGIRMSI
B3: Lst8 (natural protein)
chain: MSVILVSAGYDHTIRFWEALTGVCSRTIQHSDSQVNRLEITNDKKLLATAGHQNVRLYDIRTTNPNPVASFEGHRGNVTSVSFQQDNRWMVTSSEDGTIKVWDVRSPSIPRNYKHNAPVNEVVIHPNQGELISCDRDGNIRIWDLGENQCTHQLTPEDDTSLQSLSMASDGSMLAAANTKGNCYVWEMPNHTDASHLKPVTKFRAHSTYITRILLSSDVKHLATCSADHTARVWSIDDDFKLETTLDGHQRWVWDCAFSADSAYLVTASSDHYVRLWDLSTREIVRQYGGHHKGAVCVALNDV
B4: Avo1 (natural protein)
chain: MDTVTVLNELRAQFLRVCPEKDQMKRIIKPYIPVDEFNTEQCLDSSIRELYMNSDGVSLLPELESPPVSKDFMENYASLGKMRIMRENEGQKGKANQNLIGAEKTERDEEETRNLQDKSAKNTLIVEENGTLRYNPLNSSASNSLLNDDDHTSGKHHKTSSKEDSYLNSSMEMQKKSSKRSSLPFVRIFKSRRDHSNTSGNKNVMNTTNTRAKSSTLHPPGARHNKKGSKFDMNFDFDENLEEEDDDDDDDEEGDDIHSQFFQLDDDFDAKGSGASPAHKGINGMSNNKNNTYTNNRNSISILDDRESSNGNIGSASRLKSHFPTSQKGKIFLTDNKNDGQKSDSLNANKGIHGDGSSASGNGSVSRDGLTETESNNISDMESYINEKDLDDLNFDTVTSNINKTVSDLGGHESTNDGTAVMNRDSKDSRSNSNEFNAQNRDRITPGSSYGKSLLGSEYSEERYSNNDSSTMESGEMSLDSDMQTNTIPSHSIPMSMQKYGIYHGDDDSTLNNVFDKAVLTMNSSRHPKERRDTVISGKEPTSLTSSNRKFSVSSNLTSTRSPLLRGHGRTSSTASSEHMKAPKVSDSVLHRARKSTLTLKQDHSQPSVPSSVHKSSKEGNILIEKTTDYLVSKPKASQLSNMFNKKKKRTNTNSVDVLEYFSFVCGDKVPNYESMGLEIYIQASKKYKRNSFTTKVRKSSTIFEVIGFALFLYSTEKKPDNFEEDGLTVEDISNPNNFSLKIVDEDGEPFEDNFGKLDRKSTIQSISDSEVVLCKVDDAEKSQNEIETPLPFETGGGLMDASTLDANSSHDTTDGTINQLSFYKPIIGNEDDIDKTNGSKIIDVTVYLYPNVNPKFNYTTISVLVTSHINDILVKYCKMKNMDPNEYALKVLGKNYILDLNDTVLRLDGINKVELISKKDARELHLEKMKPDLKKPVLPTIQSNDLTPLTLEPLNSYLKADAGGAVAAIPENTKVTSKAKKISTKYKLGLAKQHSSSSVASGSVSTAGGLANGNGFFKNKNSSKSSLHGTLQFHNINRSQSTMEHTPDTPNGVGDNFQDLFTGAYHKYKVWRRQQMSFINKHERTLAIDGDYIYIVPPEGRIHWHDNVKTKSLHISQVVLVKKSKRVPEHFKIFVRREGQDDIKRYYFEAVSGQECTEIVTRLQNLLSAYRMNHK

In one test the target is T1, Avo3. Description: cryo-EM structure.
The test “Avo1” addresses B4. Kind of test: cryo-EM structure.

With B1, the binding result with Avo3 was “binds”.

Regarding B2, the binding result with Avo3 was “binds”.

B3: the binding result in the test with Avo1 is listed as “binds”. In the case of B4, the binding result in the test with Avo3 is on record as “binds”.
